From patent US20240409645A1 (DUALYX, published 2024)

T1: human common cytokine receptor γ-chain (γc; IL-2Rγ; CD132), recombinant protein (human, UniProt P31785 23-262)
T1 construct: also called human IL-2R subunit CD132
T1 sequence: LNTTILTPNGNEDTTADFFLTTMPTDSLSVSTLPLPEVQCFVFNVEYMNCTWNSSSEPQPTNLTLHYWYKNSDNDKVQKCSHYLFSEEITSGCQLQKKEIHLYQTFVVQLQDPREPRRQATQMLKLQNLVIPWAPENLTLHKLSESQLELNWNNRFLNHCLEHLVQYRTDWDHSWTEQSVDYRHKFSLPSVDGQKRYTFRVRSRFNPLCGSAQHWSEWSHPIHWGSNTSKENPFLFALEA

T2: mouse IL-2Rγ, recombinant protein (mouse, UniProt P34902 23-263, limits assumed)
T2 sequence (looked up): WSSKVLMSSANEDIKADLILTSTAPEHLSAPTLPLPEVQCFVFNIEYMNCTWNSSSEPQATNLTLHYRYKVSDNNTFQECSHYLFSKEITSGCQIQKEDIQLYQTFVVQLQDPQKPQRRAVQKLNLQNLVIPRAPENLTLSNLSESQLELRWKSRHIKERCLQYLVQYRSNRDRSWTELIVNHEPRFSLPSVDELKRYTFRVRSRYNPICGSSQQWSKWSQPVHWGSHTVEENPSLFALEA

T3: cynomolgus monkey IL-2Rγ/CD132 subunit (cynomolgus monkey, UniProt A0A2K5VGJ6 23-262)
T3 construct: also called Cyno IL-2R subunit
T3 sequence: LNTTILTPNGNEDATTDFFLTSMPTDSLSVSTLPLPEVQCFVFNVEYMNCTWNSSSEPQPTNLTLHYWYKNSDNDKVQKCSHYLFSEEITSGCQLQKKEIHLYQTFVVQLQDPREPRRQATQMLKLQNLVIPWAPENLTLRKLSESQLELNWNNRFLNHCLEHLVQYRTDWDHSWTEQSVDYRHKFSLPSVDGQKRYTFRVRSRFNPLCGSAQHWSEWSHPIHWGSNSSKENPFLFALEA


Tests used:
[1] = biological target: T1, human common cytokine receptor γ-chain …; test: P.E. off-rate SPR
Method in brief: (§1)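 CM5 chip, amine coupling (acetate buffer), ~2500 RU receptor. VHH P.E. flowed at 30 uL/min; off-rate read over 120 s.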

[2] = biological target: T1, human common cytokine receptor γ-chain …; test: P.E. binding ELISA
Method in brief: (§2)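 Read-out: OD at 450 nm, specificity called versus negative controls. Receptor chains (human or mouse IL-2Rα, β, γ) were coated directly overnight at 4° C; 4% Marvel/PBS block 1 h; P.E. at 1:5 dilution in 1% Marvel/PBS incubated 1 h.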

[3] = biological target: T2, mouse IL-2Rγ, recombinant protein; test: P.E. off-rate SPR
Method in brief: as §1

[4] = biological target: T2, mouse IL-2Rγ, recombinant protein; test: P.E. binding ELISA
Method in brief: as §2

[5] = biological target: T3, cynomolgus monkey IL-2Rγ/CD132 subunit; test: ELISA, bivalent VHH-hFc
Method: (§3) Monospecific monovalent and bivalent IL-2Rα-, IL-2Rβ- and IL-2Rγ-specific antibodies that were selected on human IL-2R subunits, were evaluated for their cross-reactivity in an ELISA. Human and cynomolgus monkey receptor subunits (Acrobiosystems, KactusBiosystems) were coated at 1 μg/mL in PBS (pH 7.4) in a Maxisorp plate (Nunc) and incubated overnight at 4° C. The plates were further washed with PBS-Tween pH 7.4 and incubated with 1% cascin/PBS-Tween blocking solution for 1 hour shaking at 400 rpm. Subsequently, the plate was washed three times with PBS-Tween pH 7.4, after which the test antibodies diluted in 0.1% casein/PBS-Tween were added to the plate and incubated for 1 hour. The plate was again washed three times, after which goat anti-human IgG Fc (HRP) detection antibody (abcam) was added to the plate and incubated for 30 min. The colouring reaction was performed with TMB (Sigma-Aldrich) and stopped with 0.5N H₂SO₄.
(§4) Absorbance was measured at 450 nm with the reference wavelength of 620 nm using spectrophotometer. Final analysis and graphic output were performed with GraphPad Prism version 8 (GraphPad Software). The dose-response binding curves were fit to a nonlinear regression model (log (agonist) vs. response with a variable slope (four parameters)).

[6] = biological target: T1, human common cytokine receptor γ-chain …; test: ELISA, bivalent VHH-hFc
Method: as §3, §4

[7] = biological target: T3, cynomolgus monkey IL-2Rγ/CD132 subunit; test: ELISA, bivalent; EC50 cyno vs human subunit
Method: as §3, §4

Binder	koff [1] [s⁻¹]	OD450 nm [2] [OD450 nm]	EC50 [5] [nM]	EC50 [6] [nM]	Fold change [7] [fold]	other results
36-MP07F02 VHH (periplasmic extract) (VHH, soluble VHH in periplasmic extract) VHH: QVQLVESGGGLVQAGGSLRLSCAASGRTLSRYAMGWFRQAPGSEREFVAASSWGGDTFYADSVEGRFTFSRDNAKNAVYLQMNSLQPEDTAAYYCAAAPTSFPTTAYSSSNSYAYWGQGTQVTVSS	0.00331	0.896	–	–	–	–
28-MP04D02 VHH (periplasmic extract) (VHH, soluble VHH in periplasmic extract) VHH: QVQLVESGGGLVQAGGSLRLSCAASGRTLSRYAMGWFRQAPGKEREFVTANSWGGDTYYADSVQGRFTFSRDNAKNTVYLQMNSLQPEDTAVYYCAAAPTSFATTAYSGSNSYAYWGQGTQVTVSS	0.0088	0.782	–	–	–	koff [3]: 0.319 s⁻¹; OD450 nm [4]: 0.054 OD450 nm
28-MP04D02 VHH-hFc, monospecific bivalent (Fc fusion, IgG1 Fc LALA-PG; also called clone 28; not shown: human IgG1 CH2 and CH3 domains (Fc)) QVQLVESGGGLVQAGGSLRLSCAASGRTLSRYAMGWFRQAPGKEREFVTANSWGGDTYYADSVQGRFTFSRDNAKNTVYLQMNSLQPEDTAVYYCAAAPTSFATTAYSGSNSYAYWGQGTQVTVSS	–	–	0.113	0.107	1.1	–
34-MP04A12 VHH (periplasmic extract) (VHH, soluble VHH in periplasmic extract) VHH: QVQLVESGGGLVQAGSSLRLSCAASGRTLSRLAMGWFRQAPGKEREFVAVNSWGGDTFYADSVEGRFTYSRDNAKSAVYLQMNSLQPEDTAVYYCAAAPTSFATTAYSSSNSYAYWGQGAQVTVSS	0.000333	1.3	–	–	–	koff [3]: 0.00809 s⁻¹; OD450 nm [4]: 3.6 OD450 nm
34-MP04A12 VHH-hFc, monospecific bivalent (Fc fusion, IgG1 Fc LALA-PG; not shown: human IgG1 CH2 and CH3 domains (Fc)) QVQLVESGGGLVQAGSSLRLSCAASGRTLSRLAMGWFRQAPGKEREFVAVNSWGGDTFYADSVEGRFTYSRDNAKSAVYLQMNSLQPEDTAVYYCAAAPTSFATTAYSSSNSYAYWGQGAQVTVSS	–	–	0.112	0.117	1	–
37-MP07F09 VHH (periplasmic extract) (VHH, soluble VHH in periplasmic extract) VHH: QVQLVESGGGLVQAGGSLRLSCAASGRTLSRYAMGWFRQAPGKEREYVAIDSWGGDTFYADSVEGRFTFSRDNAKNEVYLQMNSLQPEDTAVYYCAGAPTSFATTAYSSSNSYRYWGQGTQVTVSS	0.00126	1.81	–	–	–	koff [3]: 0.007 s⁻¹; OD450 nm [4]: 1.49 OD450 nm
38-MP07A11 VHH (periplasmic extract) (VHH, soluble VHH in periplasmic extract) VHH: QVQLVESGGGLVQAGGSLRLSCAASGRSLSRDAMGWFRQAPGKEREFVAVMSWGGDTFYTDSVEGRFTFSRDNAKNAVYLEMNDLQPEDTAVYYCAAAPTSFATTAYSSSNSYSYWGRGTQVTVSS	0.00235	1.31	–	–	–	koff [3]: 0.0149 s⁻¹; OD450 nm [4]: 0.173 OD450 nm
31-MP04E03 VHH (periplasmic extract) (VHH, soluble VHH in periplasmic extract) VHH: QVQLVESGGGLVQAGGSLRLSCTGYGGAFTGYALGWFRQAPGKEREFVARINWSGSFTYYASSVKGRFTISRDNAKNTMYLQMNNLKPEDTAVYYCAADNPSTLATDYDNWGQGTQVTVSS	–	–	–	–	–	koff [3]: 0.283 s⁻¹; OD450 nm [4]: 0.495 OD450 nm
32-MP04A08 VHH (periplasmic extract) (VHH, soluble VHH in periplasmic extract) VHH: QVQLVESGGGLVQAGGSLRLSCAASGRTFGSTAVGWFRQVPGKEREFVSAINRSGSATTYADSVKGRFTISRDNAKNTVYLQMNSLTPEDTGVYYCAADSLPYGRPYYFQRSAGEYDYWGQGTQVTVSS	0.0616	0.407	–	–	–	–
27-MP04G01 VHH (periplasmic extract) (VHH, soluble VHH in periplasmic extract) VHH: QVQLVESGGGLVQAGGSLTLSCAAPGRTFGTDVVGWFRQAPGKEREFVASISRSGDGIYYDDSVKGRFTISRNNAWNTVNLQMNSLKVEDTAVYYCAAGDGWSTYDYWGQGTQVTVSS	0.00131	0.362	–	–	–	–
29-MP04H02 VHH (periplasmic extract) (VHH, soluble VHH in periplasmic extract) VHH: QVQLVESGGGLVQAGGSLRLACVASGLTFDNYYMGWFRQAPGKEREFVAGIIWNGDHTAYADSIKGRFTISRDNAKNTAYLRMNSLKPEDTAVYYCAATFWIERATTPDIGQYAYWGQGTQVTVSS	0.00625	0.157	–	–	–	–
27-MP04G01 VHH-hFc, monospecific bivalent (Fc fusion, IgG1 Fc LALA-PG; not shown: human IgG1 CH2 and CH3 domains (Fc)) QVQLVESGGGLVQAGGSLTLSCAAPGRTFGTDVVGWFRQAPGKEREFVASISRSGDGIYYDDSVKGRFTISRNNAWNTVNLQMNSLKVEDTAVYYCAAGDGWSTYDYWGQGTQVTVSS	–	–	0.147	0.131	1.1	–
29-MP04H02 VHH-hFc, monospecific bivalent (Fc fusion, IgG1 Fc LALA-PG; not shown: human IgG1 CH2 and CH3 domains (Fc)) QVQLVESGGGLVQAGGSLRLACVASGLTFDNYYMGWFRQAPGKEREFVAGIIWNGDHTAYADSIKGRFTISRDNAKNTAYLRMNSLKPEDTAVYYCAATFWIERATTPDIGQYAYWGQGTQVTVSS	–	–	0.26	0.179	1.4	–
32-MP04A08 VHH-hFc, monospecific bivalent (Fc fusion, IgG1 Fc LALA-PG; not shown: human IgG1 CH2 and CH3 domains (Fc)) QVQLVESGGGLVQAGGSLRLSCAASGRTFGSTAVGWFRQVPGKEREFVSAINRSGSATTYADSVKGRFTISRDNAKNTVYLQMNSLTPEDTGVYYCAADSLPYGRPYYFQRSAGEYDYWGQGTQVTVSS	–	–	–	0.14	–	binding result [5]: no binding
36-MP07F02 VHH-hFc, monospecific bivalent (Fc fusion, IgG1 Fc LALA-PG; not shown: human IgG1 CH2 and CH3 domains (Fc)) QVQLVESGGGLVQAGGSLRLSCAASGRTLSRYAMGWFRQAPGSEREFVAASSWGGDTFYADSVEGRFTFSRDNAKNAVYLQMNSLQPEDTAAYYCAAAPTSFPTTAYSSSNSYAYWGQGTQVTVSS	–	–	0.121	0.117	1	–
37-MP07F09 VHH-hFc, monospecific bivalent (Fc fusion, IgG1 Fc LALA-PG; not shown: human IgG1 CH2 and CH3 domains (Fc)) QVQLVESGGGLVQAGGSLRLSCAASGRTLSRYAMGWFRQAPGKEREYVAIDSWGGDTFYADSVEGRFTFSRDNAKNEVYLQMNSLQPEDTAVYYCAGAPTSFATTAYSSSNSYRYWGQGTQVTVSS	–	–	0.141	0.137	1	–
38-MP07A11 VHH-hFc, monospecific bivalent (Fc fusion, IgG1 Fc LALA-PG; not shown: human IgG1 CH2 and CH3 domains (Fc)) QVQLVESGGGLVQAGGSLRLSCAASGRSLSRDAMGWFRQAPGKEREFVAVMSWGGDTFYTDSVEGRFTFSRDNAKNAVYLEMNDLQPEDTAVYYCAAAPTSFATTAYSSSNSYSYWGRGTQVTVSS	–	–	0.133	0.113	1.2	–
35-MP07G01 VHH-hFc, monospecific bivalent (Fc fusion, IgG1 Fc LALA-PG; not shown: human IgG1 CH2 and CH3 domains (Fc)) QVQLQESGGGLVQGGGSLRLSCAASGGIFSSYAMGWFRQAPGKEREFVAAISRSGRSTNYADSVKGRFTISRDNAKSTVYLQMNSLKPEETAVYYCAAGRYYNSAYDPSPGDFGSWGHGTQVTVSS	–	–	–	–	–	binding result [5]: no binding; binding result [6]: no binding
